This data set has as its target T1, Met-Gly-Met-Met peptide substrate.
T1 chain: MGMM

Positions count from the first letter of the chain named. Names may count otherwise.

The record followed here is patent US20020182701.

B1: N-terminal HA-tagged wild-type yeast MetAP2 (protein)
chain: YPYDVPDYAMTDAEIENSPASDLKELNLENEGVEQQDQAKADESDPVESKKKKNKKKKKKKSNVKKIELLFPDGKYPEGAWMDYHQDFNLQRTTDEESRYLKRDLERAEHWNDVRKGAEIHRRVRRAIKDRIVPGMKLMDIADMIENTTRKYTGAENLLAMEDPKSQGIGFPTGLSLNHCAAHFTPNAGDKTVLKYEDVMKVDYGVQVNGNIIDSAFTVSFDPQYDNLLAAVKDATYTGIKEAGIDVRLTDIGEAIQEVMESYEVEINGETYQVKPCRNLCGHSIAPYRIHGGKSVPIVKNGDTTKMEEGEHFAIETFGSTGRGYVTAGGEVSHYARSAEDHQVMPTLDSAKNLLKTIDRNFGTLPFCRRYLDRLGQEKYLFALNNLVRHGLVQDYPPLNDIPGSYTAQFEHTILLHAHKKEVVSKGDDYGKMRFQMASSLGIILL
With B1, the “Specific activity (MetAP activity on 2 mM Met-Gly-Met-Met)” value is “Specific activity for the wild-type MetAP2 was 11±0.5 U/mg”.

B2: N-terminal HA-tagged yeast MetAP2 (H174A) (protein)
chain: B1 chain with H183A
Take B2: the “catalytic activity in vitro” value is recorded as “displayed no detectable activity against a peptide substrate (MGMM)”.
